Key:
[1] = biological target: T1, recombinant human A33 antigen (human, UniProt Q99795 22-233, limits assumed); assay: SPR (Biacore), recombinant human A33 immobilized on CM5 chip, Fab injected at 75-200 nM
T1 construct: also called human antigen A33; immobilized recombinant human A33
T1 sequence (looked up): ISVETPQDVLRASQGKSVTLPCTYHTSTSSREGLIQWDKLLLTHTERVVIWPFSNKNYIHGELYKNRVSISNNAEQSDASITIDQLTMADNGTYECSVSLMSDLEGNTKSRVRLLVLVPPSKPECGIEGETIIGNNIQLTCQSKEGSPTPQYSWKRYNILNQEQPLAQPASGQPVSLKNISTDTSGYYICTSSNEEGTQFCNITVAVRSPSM
Protocol: (§1) The binding strength was determined by surface plasmon resonance in accordance with Rader, et al., Proc. Natl. Acad. Sci USA 95(15): 8910–8915 (1998), incorporated by reference. Briefly, the determination of association ($kon$) and dissociation ($koff$) rate constants for binding of rabbit and humanized Fab to recombinant human A33 antigen was performed on a Biacore instrument (Biacore AB, Uppsala, Sweden). A CM5 sensor chip (Biacore AB) was activated for immobilization with Nhydroxysuccinimide and N-ethyl-N'-(3-dimethylaminopropyl)carbodiimide according to standard methods. Recombinant human A33 antigen was coupled at a low density to the surface by injection of 30 µl to 40 µl of a 1 ng/µl sample in 10 mM sodium acetate (pH 3.5). Approximately 500 resonance units were immobilized. Subsequently, the sensor chip was deactivated with 1 M ethanolamine hydrochloride (pH 8.5). Binding of Fab to immobilized A33 antigen was studied by injection of Fab at 5 different concentrations ranging from 75 nM to 200 nM. PBS was used as the running buffer. The sensor chip was regenerated with 20 mM HCl and remained active for at least 50 measurements. The $kon$ and $koff$ values were calculated using Biacore AB evaluation software. The equilibrium dissociation constant K_d was calculated from $koff/kon$.
Figure 6: FIG. 6 depicts representative Biacore sensorgrams obtained for the binding of rabbit Fab 1 to immobilized human A33 antigen. For association, Fab were injected at 5 different concentrations (200 nM, 150 nM, 125 nM, 100 nM, 75 nM, top to bottom) between t=125 and t=370 seconds, using a flow rate of 5 µl/minute. For dissociation, the flow rate was increased to 50 µl/minute resonance units (RU).

[2] = biological target: T1, recombinant human A33 antigen; assay: SPR (Biacore), recombinant human A33 immobilized on CM5 chip; Kd calculated from koff/kon
Protocol: as §1
Association ($kon$) and dissociation ($koff$) rate constant were determined using surface plasmon resonance. Human antigen A33 was immobilized on the sensor chip. The dissociation constant (K_d) was calculated from […].

B1: rabbit Fab 1 (rabbit VH1, VL1; chimeric rabbit/human Fab) (Fab, V domains shown)
VH: QQQVMESGGGLVTLGGSLTLTCKASGIDFSNNGISWVRQAPGKGLEWILYIYPDYGSTDYASWVNGRFTISLDNAQNTVFLQMTSLTAADTATYFCARDRGAYAGSRGTRLDLWGQGTLVTVSS
VL: EFDMTQTPPSLSASVGETVRIRCLASEFLFNGVSWYQQKPGKPPKFLISGASNLESGVPPRFSGSGSGTDYTLTIGGVQAEDVATYYCLGGYSGSSGLTFGAGTNVEIK
notes: Soluble Fab from E. coli; also called rabbit 1; rabbit clone 1
- koff [1]: 0.00012 s⁻¹
- kon [1]: 307000 M⁻¹ s⁻¹
- Kd [2]: 0.39 nM

B2: humanized Fab B (human VLB and human VHB) (Fab, V domains shown)
VH: EVQVMESGGGLVKPGGSLRLSCAASGIGFSHYGISWVRQAPGKGLEWVSYIYPNYGSVDYASSVNGRFTISLDNAQNSLYLQMNSLRAEDTAVYFCARDRGYYSGSRGTRLDLWGQGTLVTVSS
VL: ELQMTQSPSSLSASVGDRVTITCLASEFLFNGVSWYQQKPGKVPKFLIYGASNLESGVPSRFSGSGSGTDFTLTISSLQPEDVATYYCLGGYSGSSGLTFGGGTKVEIK
- koff [1]: 0.00061 s⁻¹
- kon [1]: 352000 M⁻¹ s⁻¹
- Kd [2]: 1.7 nM

B3: humanized Fab F (human VLF and human VHF) (Fab, V domains shown)
VH: EVQVMESGGGLVKPGGSLRLSCAASGIGFSHYGISWVRQAPGKGLEWVSYIYPNYGSVDYASSVNGRFTISLDNAQNSLYLQMNSLRAEDTAVYYCARDRGYYSGSRGTRLDLWGQGTLVTVSS
VL: ELQMTQSPSSLSASVGDRVTITCLASEFLFNGVSWYQQKPGKAPKFLIYGASNLESGVPSRFSGSGSGTDFTLTISSLQPEDVATYYCLGGYSGSSGLTFGGGTKVEIK
- koff [1]: 0.00068 s⁻¹
- kon [1]: 192000 M⁻¹ s⁻¹
- Kd [2]: 3.5 nM

B4: humanized Fab C (human VLC and human VHC) (Fab, V domains shown)
VH: EVQVMESGGGLVKPGGSLRLSCAASGIDFSHYGISWVRQAPGKGLEWVSYIYPNYGSVDYASSVNGRFTISLDNAQNSLYLQMNSLRAEDTAVYYCARDRGYYSGSRGTRLDLWGQGTLVTVSS
VL: ELQMTQSPSSLSASVGDRVTITCLASEFLFNGVSWYQQKPGKAPKFLIYGASNLESGVPSRFSGSGSGTDFTLTISSLQPEDVATYYCLGGYSGSSGLTFGGGTKVEIK
- koff [1]: 0.00197 s⁻¹
- kon [1]: 109000 M⁻¹ s⁻¹
- Kd [2]: 18.1 nM

B5: humanized Fab D (human VLD and human VHD) (Fab, V domains shown)
VH: EVQVMESGGGLVKPGGSLRLSCAASGIDFSHYGISWVRQAPGKGLEWVSYIYPNYGSVDYASSVNGRFTISLDNAQNSLYLQMNSLRAEDTAVYFCARDRGYYSGSRGTRLDLWGQGTLVTVSS
VL: ELQMTQSPSSLSASVGDRVTITCLASEFLFNGVSWYQQKPGKVPKFLIYGASNLESGVPSRFSGSGSGTDYTLTISSLQPEDVATYYCLGGYSGSSGLTFGGGTKVEIK
- koff [1]: 0.0019 s⁻¹
- kon [1]: 65000 M⁻¹ s⁻¹
- Kd [2]: 29.2 nM

B6: humanized Fab E (human VLE and human VHE) (Fab, V domains shown)
VH: EVQVMESGGGLVKPGGSLRLSCAASGFTFSHYGISWVRQAPGKGLEWVSYIYPNYGSVDYASSVNGRFTISFDNAQNSVYLQMNSLRAEDTAVYYCARDRGYYSGSRGTRLDLWGQGTLVTVSS
VL: ELQMTQSPSSLSASVGDRVTITCLASEFLFNGVSWYQQKPGKAPKLLIYGASNLESGVPSRFSGSGSGTDYTLTISSLQPEDVATYYCLGGYSGSSGLTFGGGTKVEIK
- koff [1]: 0.0005 s⁻¹
- kon [1]: 65000 M⁻¹ s⁻¹
- Kd [2]: 7.7 nM

B7: humanized Fab A (human VLA and human VHA) (Fab, V domains shown)
VH: EVQVMESGGGLVKPGGSLRLSCAASGIDFSHYGISWVRQAPGKGLEWVSYIYPNYGSVDYASSVNGRFTISFDNAQNSLYLQMNSLRAEDTAVYYCARDRGYYSGSRGTRLDLWGQGTLVTVSS
VL: ELQMTQSPSSLSASVGDRVTITCLASEFLFNGVSWYQQKPGKVPKFLIYGASNLESGVPSRFSGSGSGTDYTLTISSLQPEDVATYYCLGGYSGSSGLTFGGGTKVEIK
- koff [1]: 0.00059 s⁻¹
- kon [1]: 105000 M⁻¹ s⁻¹
- Kd [2]: 5.6 nM

From patent US6346249 (LUDWIG INSTITUTE FOR CANCER RESEARCH, dated 2002)
